Data taken from publication PMC3648639.

Molecular target: untagged RNF8 FHA domain (UniProt O76064)
Assay: ITC

Chain of UniProt O76064 (O76064 38-92): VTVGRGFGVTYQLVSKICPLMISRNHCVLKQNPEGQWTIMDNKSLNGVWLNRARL

Work on ICP0 pT67 peptide yielded a Kd of 0.833 µM.
